Experimental data published in publication PMC11800616 (Mobile DNA, 2025).
Like-named read-outs stand apart in the source and are kept apart here.

Legend:
[1] = biological target: T1, LINE-1 ORF2p (translation product of L1 ORF2), endogenous (human (endogenous in N2102Ep and …, UniProt O00370 1-1275)); experiment: affinity purification with mass spectrometry
[2] = biological target: T1, LINE-1 ORF2p (translation product of L1 …); experiment: affinity purification with mass spectrometry; remark: listed apart in the source

T1 sequence (O00370 whole entry): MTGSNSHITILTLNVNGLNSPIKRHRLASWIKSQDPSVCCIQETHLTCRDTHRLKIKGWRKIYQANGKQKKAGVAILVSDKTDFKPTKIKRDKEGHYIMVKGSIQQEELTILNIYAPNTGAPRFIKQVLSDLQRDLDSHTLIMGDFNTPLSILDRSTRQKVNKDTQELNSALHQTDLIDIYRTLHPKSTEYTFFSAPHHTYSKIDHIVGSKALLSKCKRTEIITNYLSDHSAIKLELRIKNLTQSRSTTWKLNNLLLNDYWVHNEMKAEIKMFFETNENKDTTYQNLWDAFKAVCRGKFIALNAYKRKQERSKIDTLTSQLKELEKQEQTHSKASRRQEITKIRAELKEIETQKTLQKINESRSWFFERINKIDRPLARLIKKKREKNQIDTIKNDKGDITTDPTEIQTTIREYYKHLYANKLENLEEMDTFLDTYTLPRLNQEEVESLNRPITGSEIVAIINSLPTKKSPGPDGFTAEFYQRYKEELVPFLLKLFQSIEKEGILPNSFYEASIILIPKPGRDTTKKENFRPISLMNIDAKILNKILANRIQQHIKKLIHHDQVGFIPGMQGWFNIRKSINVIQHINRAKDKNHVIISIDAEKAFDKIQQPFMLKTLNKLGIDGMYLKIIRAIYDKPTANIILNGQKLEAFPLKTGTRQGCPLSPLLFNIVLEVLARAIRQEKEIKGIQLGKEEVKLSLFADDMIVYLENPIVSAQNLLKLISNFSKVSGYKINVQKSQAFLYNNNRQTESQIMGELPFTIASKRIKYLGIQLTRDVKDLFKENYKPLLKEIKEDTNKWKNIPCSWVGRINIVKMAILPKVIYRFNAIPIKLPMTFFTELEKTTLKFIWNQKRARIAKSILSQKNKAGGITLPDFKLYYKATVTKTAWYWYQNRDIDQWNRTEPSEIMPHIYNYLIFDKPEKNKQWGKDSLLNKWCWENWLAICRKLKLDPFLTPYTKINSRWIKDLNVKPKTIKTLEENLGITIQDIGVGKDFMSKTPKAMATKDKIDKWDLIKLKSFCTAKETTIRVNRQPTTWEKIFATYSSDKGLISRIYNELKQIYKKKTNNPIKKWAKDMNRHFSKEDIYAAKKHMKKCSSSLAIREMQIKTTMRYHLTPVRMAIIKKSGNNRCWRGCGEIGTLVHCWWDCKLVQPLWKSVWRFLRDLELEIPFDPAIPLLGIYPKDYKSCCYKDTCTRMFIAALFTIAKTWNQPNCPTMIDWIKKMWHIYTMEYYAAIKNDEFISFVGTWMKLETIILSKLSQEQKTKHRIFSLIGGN

ORF1p:ORF2p molar ratio in the affinity enriched fraction [1]: ~184 molar ratio (ORF1p per ORF2p) | ORF1p:ORF2p molar ratio in the affinity enriched fraction [2]: ~279 molar ratio (ORF1p per ORF2p)
B1: LINE-1 ORF1p (translation product of L1 ORF1), endogenous (natural protein)
chain: MGKKQNRKTGNSKTQSASPPPKERSSSPATEQSWMENDFDELREEGFRRSNYSELREDIQTKGKEVENFEKNLEECITRITNTEKCLKELMELKTKARELREECRSLRSRCDQLEERVSAMEDEMNEMKREGKFREKRIKRNEQSLQEIWDYVKRPNLRLIGVPESDVENGTKLENTLQDIIQENFPNLARQANVQIQEIQRTPQRYSSRRATPRHIIVRFTKVEMKEKMLRAAREKGRVTLKGKPIRLTADLSAETLQARREWGPIFNILKEKNFQPRISYPAKLSFISEGEIKYFIDKQMLRDFVTTRPALKELLKEALNMERNNRYQPLQNHAKM
